Measured values published in article PMC4014737.

Biological target: biotinylated yeast L3Δ21 peptide (S. cerevisiae) (UniProt P14126)
Experiment: SPR; Biacore 3000; biotinylated L3Δ21 peptide on an SA sensor chip (Fc2), PAP as analyte at 103, 94, 75 and 45 pM; 25 °C; HBS-EP (0.1 M HEPES pH 7.4, 0.15 M NaCl, 3 mM EDTA, 0.005% polysorbate 20); 1:1 Langmuir fit

UniProt P14126, sequence (P14126 1-21, stated change not applied): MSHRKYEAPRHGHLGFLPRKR

Question: “His-tagged pokeweed antiviral protein (PAP), recombinant (enzyme)” was tested. Which Kd did it give?
Answer: 24.8 nM

Question: And the koff?
Answer: 4.6e-05 s⁻¹

Question: And the kon?
Answer: 1860 M⁻¹ s⁻¹
